Data from paper PMC5430508.

Biological target: 8G-AIDA receptor: eight tandemly repeated protein G C2 domains linked with AIDA, on the surface of Escherichia coli BL21 cells (BL21/8G) (not stated (streptococcal))
Assay: ELISA; bacteria coated on poly-L-lysine-treated 96-well plates (10^7 cfu/well added; about 6.7 × 10^6 cfu/well coated), blocked with 5% skim milk; HRP-conjugated goat anti-mouse IgG Fc (1 μg/mL), room temperature, 1 h; ABTS, absorbance at 405 nm

HRP-conjugated goat anti-mouse IgG Fc (antibody)
fold of antibody trapped against BL21/1G cells: 18.9 fold
